Experimental data as given in PMC10759260 (Journal of Pharmaceutical Analysis, 2023).
Where two headings read alike, the source gives them in different places.

How the values were obtained:
[1] = target: HSP90α mutant Y61A (Homo sapiens, UniProt P07900, Y61A); test: biochemical
[2] = target: HSP90α (90 kD heat shock protein alpha) (Homo sapiens, UniProt P07900); test: biochemical
[3] = target: CDC37 recombinant protein (UniProt Q16543); test: ITC
[4] = target: CDC37 recombinant protein (UniProt Q16543); test: ITC; remark: listed apart in the source

CDC37 recombinant protein, sequence (Q16543 whole entry): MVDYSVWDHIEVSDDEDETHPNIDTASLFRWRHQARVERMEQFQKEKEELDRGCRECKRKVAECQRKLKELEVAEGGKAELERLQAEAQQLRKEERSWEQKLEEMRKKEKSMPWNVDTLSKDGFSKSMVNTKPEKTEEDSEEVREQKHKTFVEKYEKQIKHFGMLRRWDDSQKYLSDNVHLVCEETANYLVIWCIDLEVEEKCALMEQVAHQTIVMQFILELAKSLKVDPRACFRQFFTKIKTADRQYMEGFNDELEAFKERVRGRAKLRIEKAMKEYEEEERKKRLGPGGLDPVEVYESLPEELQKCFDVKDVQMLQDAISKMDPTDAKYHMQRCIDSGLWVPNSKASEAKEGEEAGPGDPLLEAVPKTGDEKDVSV

| Kd [3] [µM] | Kd [4] [µM] | Compound | Kd [1] [µM] | Kd [2] [µM] |
| --- | --- | --- | --- | --- |
| – | – | CC(C)=CC/C=C(\C)[C@H]1CC[C@]2(C)[C@@H]1[C@H](O)C[C@@H]1[C@@]3(C)CC[C@H](O[C@@H]4O[C@H](CO)[C@@H](O)[C@H](O)[C@H]4O[C@@H]4O[C@H](CO)[C@@H](O)[C@H](O)[C@H]4O)C(C)(C)[C@@H]3CC[C@]12C [Rg5, ginsenoside Rg5] | 232 ± 34 | 24.8 ± 1.76 |
| 2.68 | 34.4 | HSP90α WT recombinant protein from E. coli (from UniProt P07900 1-732) (natural protein) | – | – |
| 7.59 | 8.23 | HSP90α Y61A recombinant protein from E. coli (from UniProt P07900 1-732) (natural protein) | – | – |
